This note sets out measurements from publication PMC4338028, “Studies of a Murine Monoclonal Antibody Directed against DARC: Reappraisal of Its Specificity” (PLoS ONE, 2015).

In assay [1] the target is T1, first extracellular domain of DARC followed by nuclease from Staphylococcus aureus (ECD1-nuc), wild type (Homo sapiens, UniProt Q16570).
T1 construct: Duffy Antigen Receptor for Chemokines (DARC, ACKR1), first extracellular domain (ECD1); also called WT ECD1-nuc; consensus ECD1; source: E. coli BL21, purified (Capto-S ion exchange, reversed-phase chromatography); not shown: nuclease from Staphylococcus aureus, C-terminal, kept
Kind of assay: SPR; 2C3 MAb or 2C3 Fab immobilised by amine coupling (about 400 RU), anti-Kx2 antibody in the reference cell; ECD1-nuc as analyte at 5 concentrations; association 100 sec, dissociation 600 sec; Biacore X100, CM5, HBS-EP; 1:1 Langmuir model. The following applies: both partners purified. On the technique in general: Surface plasmon resonance follows binding to a sensor surface in real time, without labels.

The target of assay [2] is T1, first extracellular domain of DARC …. Kind of assay: ELISA; direct: plate coated with wild-type ECD1-nuc (0.1 μg per well), 2C3 Fab diluted in TBS, 1 h at room temperature; detected with anti-Fab antiserum conjugated with alkaline phosphatase; triplicates. The following applies: both partners purified. (In general: ELISA stands for enzyme-linked immunosorbent assay.)
Assay [3] deals with ECD1-nuc after phosphorylation by Src kinase (phosphate on Tyr-30) (human). Kind of assay: SPR; ECD1-nuc (Tyr-54 of nuclease removed) immobilised as ligand, nuclease in the reference cell; 2C3 Fab as analyte; measured before and after phosphorylation on the chip by Src kinase; Biacore X100.
Assay [4] has as its target ECD1-nuc with the phosphorylation site on Tyr-54 of nuclease removed, not phosphorylated (human). The assay is described as above.
Assay [5] has as its target T2, Duffy Antigen Receptor for Chemokines (DARC), full-length consensus, expressed in K562 cells (human) (UniProt Q16570).
T2 sequence (chain, N-linked oligosaccharide chains (as made in K562 cells)): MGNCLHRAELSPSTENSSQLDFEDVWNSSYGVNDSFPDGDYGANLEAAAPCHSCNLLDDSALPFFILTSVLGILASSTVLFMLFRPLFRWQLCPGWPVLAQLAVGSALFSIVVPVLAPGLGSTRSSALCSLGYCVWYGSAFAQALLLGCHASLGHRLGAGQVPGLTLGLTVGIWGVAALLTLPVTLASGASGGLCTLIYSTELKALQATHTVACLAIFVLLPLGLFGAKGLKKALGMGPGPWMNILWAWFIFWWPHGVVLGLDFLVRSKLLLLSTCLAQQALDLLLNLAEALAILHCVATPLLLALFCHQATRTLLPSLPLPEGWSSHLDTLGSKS
Kind of assay: SPR; DARC purified from K562 cells immobilised at ca. 400 RU, reference cell only activated and deactivated; 2C3 Fab as analyte; measured before and after deglycosylation on the chip with N-glycosidase; Biacore X100.

The target in assay [6] is T3, DARC from K562 cells after deglycosylation (Homo sapiens, UniProt Q16570, oligosaccharides removed by PNG-ase F on the chip).
T3 construct: Duffy Antigen Receptor for Chemokines (DARC, Atypical Chemokine Receptor 1), full length; m15 after treatment on the chip; also called deglycosylated DARC; source: K562 cells expressing DARC, purified on an immobilised anti-DARC nanobody; deglycosylated with N-glycosidase (PNG-ase F) on the sensor chip
The assay is described as above. The following applies: both partners purified.

Assay [7] concerns the target T4, Duffy Antigen Receptor for Chemokines (DARC), full-length consensus, expressed in K562 cells (Homo sapiens, UniProt Q16570, N-linked oligosaccharide chains (as made in K562 cells)).
T4 construct: also called ACKR1; DARC from K562 cells; source: K562 cells, transfected, selected with geneticin: on cells (flow cytometry); purified from the lysate on an immobilised anti-DARC nanobody, eluted with peptide DFEDVW (SPR)
Kind of assay: flow cytometry on cells; about 10^6 transfected K562 cells incubated 1 hour with 2C3 MAb culture supernatant in PBS-0.2% BSA, PE-conjugated secondary antibody; read-out is the ratio of % cells positive with 2C3 MAb to % positive with the anti-Fy^a antibody; cells with mean fluorescence above 10^2 counted as positive. The following applies: partners not purified. (In general: In flow cytometry, cells or beads pass a laser one at a time.)

The target of assay [8] is T5, full-length DARC with Trp-26 replaced by Phe, on K562 cells (Homo sapiens (Human)., UniProt Q16570, W26F (printed as the sequence FEDVFNSSY)).
T5 construct: DARC (ACKR1), full length, mutant; source: K562 cells, transfected, on cells
Described as above. The following applies: partners not purified.

The target in assay [9] is T6, full-length DARC with Tyr-30 replaced by Ala, on K562 cells (Homo sapiens, UniProt Q16570, Y30A (printed as the sequence FEDVWNSSA)).
T6 construct: DARC (ACKR1), full length, mutant; source: K562 cells, transfected, on cells
The assay is described as above. The following applies: partners not purified.

The target of assay [10] is T7, full-length DARC with Ser-29 and Tyr-30 replaced by Ala, on K562 cells (Homo sapiens (Human)., UniProt Q16570, S29A (printed as the sequence FEDVWNSAA) | Y30A (printed as the sequence …, site N27 is not glycosylated)).
T7 construct: DARC (ACKR1), full length, mutant; source: K562 cells, transfected, on cells
Described as above. The following applies: partners not purified.

Assay [11] addresses T8, full-length DARC with Tyr-30 replaced by Glu, on K562 cells (Homo sapiens, UniProt Q16570, Y30E (printed as the sequence FEDVWNSSE)).
T8 construct: DARC (ACKR1), full length, mutant; source: K562 cells, transfected, on cells
The description is as above. The following applies: partners not purified.

The target of assay [12] is T9, full-length DARC without the glycosylation site at Asn-27 (Ser-29 replaced by Ala), on K562 cells (Homo sapiens, UniProt Q16570, S29A (printed as the sequence FEDVWNSAY), site N27 is not glycosylated).
T9 construct: DARC (ACKR1), full length, mutant; source: K562 cells, transfected, on cells
The assay is described as above. The following applies: partners not purified.

The target in assay [13] is T10, synthetic peptide DFEDVWNSSYG (residues 21-31 of ECD1 of DARC) (Homo sapiens).
T10 construct: DARC (ACKR1), residues 21-31 of ECD1; also called non-sulfated peptide; source: synthetic peptide; bought: Cambridge Research Biochemicals
T10 chain: DFEDVWNSSYG
Kind of assay: SPR; competition: 2C3 MAb (culture supernatant diluted 40 times) incubated 1 h at room temperature with the synthetic peptides, then injected over 2000 RU of immobilised WT ECD1-nuc (nuclease in the reference cell); RU read at 90 sec; Biacore X100, CM5, HBS-EP; the pair peptide and MAb. The following applies: one partner purified.

The target in assay [14] is murine anti-Fy6 monoclonal antibody 2C3 (clone name NaM185-2C3) (mouse). Described as above.

Square brackets hold non-standard residues; d marks the D form. Ends that are not written are not given here. sY = N[C@@H](Cc1ccc(OS(=O)(=O)O)cc1)C(=O)O

B1: 2C3 Fab fragment (Fab, V domains shown)
VH: EVKLVESGGDLVQPGGSLKLSCAASGMTFSSYGMSWVRQTPDKRLELVASINRNGGSTYYPDSVKGRFTISRDNAKNTLYLQMSSLKSEDTAMYFCVRAGDYLSMDYWGQGTSVTVSS
VL: ELVMTQTPLSLPVSLGDQASISCRTSQSLLHSNGNTYLHWYLQKPGQSPKLLIYKVPNRFSGVPDRFSGSGSGTDFTLRITRVEAEDLGVYFCSQSTHVYTFGGGTKLEIK
notes: variable region of the heavy chain, as the VH of m1; CH1 part of the Fab; variable region of the light chain, as the VL of m1; light chain constant domain of the Fab; Cloned by PCR from total RNA of the hybridoma into pComb3H; also called 2C3-derived Fab; source: E. coli (pComb3H vector), purified
Regarding B1, the Kd in [1] came out at 93 nM; in assay [3], 0.459 nM; in assay [4], 14.2 nM; in assay [5] it was 0.263 nM; in assay [6], 0.0283 nM. Further, in assay [2], the “fold lower affinity than 2C3 MAb (ELISA)” value was about 2 fold. For the same molecule, the koff is 0.000777 s⁻¹ in [3], 0.000766 s⁻¹ in [4], 0.000547 s⁻¹ in assay [5] and 0.000276 s⁻¹ in assay [6]. The kon stood at 1.69e+06 M⁻¹ s⁻¹ in [3], 53900 M⁻¹ s⁻¹ in assay [4], 2.08e+06 M⁻¹ s⁻¹ in assay [5] and 9.75e+06 M⁻¹ s⁻¹ in [6].

B2: murine anti-Fy6 monoclonal antibody 2C3 (clone name NaM185-2C3) (antibody, V domains shown)
VH: EVKLVESGGDLVQPGGSLKLSCAASGMTFSSYGMSWVRQTPDKRLELVASINRNGGSTYYPDSVKGRFTISRDNAKNTLYLQMSSLKSEDTAMYFCVRAGDYLSMDYWGQGTSVTVSS
VL: ELVMTQTPLSLPVSLGDQASISCRTSQSLLHSNGNTYLHWYLQKPGQSPKLLIYKVPNRFSGVPDRFSGSGSGTDFTLRITRVEAEDLGVYFCSQSTHVYTFGGGTKLEIK
notes: variable region of the heavy chain; murine heavy chain constant region; variable region of the light chain; murine light chain constant region; Whole murine antibody; The variable regions were cloned from the hybridoma for the Fab; also called 2C3 MAb; MAb 2C3; source: 2C3-producing hybridoma
Consider B2, for which the equilibrium dissociation constant (Kd) in assay [1] stood at 1.1 nM. In addition, the “ratio of % cells positive with 2C3 MAb to % cells positive with anti-Fy^a MAb” value is 0.97 ± 0.07 in [7]; 0.19 ± 0.02 in [8]; 0.75 ± 0.03 in assay [9]; 0.95 ± 0.03 in assay [10]; 1.16 ± 0.09 in [11]; 0.97 ± 0.04 in assay [12]. The IC50 in assay [13] is 410 ± 40 nM.
DFEDVWNSS[sY]G [synthetic sulfated peptide …(SO3H)G (residues 21-31 of ECD1 of DARC)] returned an IC50 in assay [14] of 252 nM.

A word on the Kd: it is the free concentration of one partner at which half of the binding sites on the other are occupied at equilibrium, for simple one-to-one binding. One may read the koff as the rate constant with which the complex falls apart. High values mean a short-lived complex, low ones a long-lived complex. One may read the kon as a measure of how fast the partners come together. One may read the IC50 as the concentration that inhibits the measured activity by half. The low end stands for greater potency in that assay, the high end for weaker potency in that assay.
